From PMC9413830 come the findings set out here.

The series deals with Lys1 (position 1, -----K-----). Nature of the series: potentiometry. The settings on record: No added salt; only the amphiphile counterions and the added NaOH; none (ultrapure water); 4 mM amphiphile, self-assembled; the assembly morphology changes with pH during the titration.

As usually defined, the pKa is the pH at which an ionisable group is half protonated. As for “C12-K (lysine amphiphile with a C12 alkyl tail) (synthetic)”, the pKa is given as 8.69.
The same measure for “C14-K (lysine amphiphile with a C14 alkyl tail) (synthetic)”: 8.01; for “C16-K (lysine amphiphile with a C16 alkyl tail; L enantiomer titrated) (synthetic)”: 7.66.
